Reference: publication PMC4321490, “Structural analysis of DNA binding by C.Csp231I, a member of a novel class of R-M controller proteins regulating gene expression”

Key:
[1] = biological target: C.Csp231I controller protein (Citrobacter sp. RFL231); experiment: crystal structure; C.Csp231I in complex with 21 bp OL or OR operator DNA duplexes; three crystal forms (P6(1) OL 2.30 Å, C2 OL 2.75 Å, P6(1) OR 1.80 Å); subunits within one protein dimer
C.Csp231I (two dimers) [2] = biological target: T1, C.Csp231I (two dimers) (Citrobacter sp. RFL231, UniProt Q32WH4 1-98); experiment: EMSA; larger complex at 4:1 and above; 2 uM DNA; EMSA: 10 mM Tris-HCl pH 8.0, 0.1 M NaCl, 1 mM EDTA, room temperature 30 min, 2 uM DNA, 6.5% native PAGE in 0.25x TBE; AUC: same buffer, 20 C; conditions: protein: recombinant; chain copies: 4
T1 sequence: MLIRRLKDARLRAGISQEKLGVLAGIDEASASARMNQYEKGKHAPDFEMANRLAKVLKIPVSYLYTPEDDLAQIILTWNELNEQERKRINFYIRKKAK

C.Csp231I [3] = biological target: T2, C.Csp231I (Citrobacter sp. RFL231, UniProt Q32WH4 1-98); experiment: EMSA; single complex up to 2:1 subunits per duplex; 2 uM DNA; EMSA: 10 mM Tris-HCl pH 8.0, 0.1 M NaCl, 1 mM EDTA, room temperature 30 min, 2 uM DNA, 6.5% native PAGE in 0.25x TBE; AUC: same buffer, 20 C; conditions: protein: recombinant; chain copies: 2
T2 sequence: T1 sequence

C.Csp231I [4] = biological target: T2, C.Csp231I; experiment: EMSA; single dimer at the OL site; 2 uM DNA; EMSA: 10 mM Tris-HCl pH 8.0, 0.1 M NaCl, 1 mM EDTA, room temperature 30 min, 2 uM DNA, 6.5% native PAGE in 0.25x TBE; AUC: same buffer, 20 C; conditions: protein: recombinant; chain copies: 2
C.Csp231I [5] = biological target: T2, C.Csp231I; experiment: EMSA; one dimer binds; 2 uM DNA; EMSA: 10 mM Tris-HCl pH 8.0, 0.1 M NaCl, 1 mM EDTA, room temperature 30 min, 2 uM DNA, 6.5% native PAGE in 0.25x TBE; AUC: same buffer, 20 C; conditions: protein: recombinant; chain copies: 2
C.Csp231I [6] = biological target: T2, C.Csp231I; experiment: crystal structure; C2 form, 2.75 A, two complexes per asymmetric unit; EMSA: 10 mM Tris-HCl pH 8.0, 0.1 M NaCl, 1 mM EDTA, room temperature 30 min, 2 uM DNA, 6.5% native PAGE in 0.25x TBE; AUC: same buffer, 20 C; conditions: protein: recombinant; chain copies: 2
C.Csp231I (two dimers) [7] = biological target: T1, C.Csp231I (two dimers); experiment: EMSA; little effect of spacer mutation; 2 uM DNA; EMSA: 10 mM Tris-HCl pH 8.0, 0.1 M NaCl, 1 mM EDTA, room temperature 30 min, 2 uM DNA, 6.5% native PAGE in 0.25x TBE; AUC: same buffer, 20 C; conditions: protein: recombinant; chain copies: 4

Molecule: C.Csp231I controller protein (natural protein)
- stoichiometry N [1]: 2

B1: 54-1 (native OL+OR) (dsDNA)
DNA 1: ACACTAAGGAAAACTTAGTAAAATTGCTTTTTTAAACTAAGAAAATCTTAGCAA
DNA 2: TTGCTAAGATTTTCTTAGTTTAAAAAAGCAATTTTACTAAGTTTTCCTTAGTGT
- binding result (C.Csp231I (two dimers) [2]): binds
- binding result (C.Csp231I [3]): binds

B2: 54-2 (OR randomized) (dsDNA)
DNA 1: ACACTAAGGAAAACTTAGTAAAATTGCTTTTTTAAATAAGACTCGTTAAAAAAC
DNA 2: GTTTTTTAACGAGTCTTATTTAAAAAAGCAATTTTACTAAGTTTTCCTTAGTGT
- binding result (C.Csp231I [4]): binds

B3: 48-1 (6 bp spacer deletion) (dsDNA)
DNA 1: ACACTAAGGAAAACTTAGTAAAATTTTAAACTAAGAAAATCTTAGCAA
DNA 2: TTGCTAAGATTTTCTTAGTTTAAAATTTTACTAAGTTTTCCTTAGTGT
- binding result (C.Csp231I [5]): binds

B4: OL 21-mer (dsDNA)
DNA 1: ACACTAAGGAAAACTTAGTAA
DNA 2: TTACTAAGTTTTCCTTAGTGT
- binding result (C.Csp231I [6]): binds

B5: 54-3 (spacer randomized) (dsDNA)
DNA 1: ACACTAAGGAAAACTTAGTAACTGCATGCTACCAAACTAAGAAAATCTTAGCAA
DNA 2: TTGCTAAGATTTTCTTAGTTTGGTAGCATGCAGTTACTAAGTTTTCCTTAGTGT
- binding result (C.Csp231I (two dimers) [7]): binds
